In test [1] the target is T1, human ROR1 expressed on cells (human, UniProt Q01973 30-937).
T1 construct: whole, on cells; One molecule for cell-surface ROR1 on all cell lines; the cell line is named under assay; also called hROR1; plasma membrane human ROR1
Kind of test: flow cytometry, MDA-MB-231 cells, 1 mg/ml hSA.

The target in test [2] is T2, recombinant human CD3 epsilon extra-cellular domain protein (His-Tag, SinoBiological) (human, UniProt P07766 23-126).
T2 construct: extracellular domain; Bought; also called hCD3ε; human CD3ε; not shown: His tag
The experiment in a line: SPR; hCD3ε immobilized, two-state fit. (In general: SPR reads the build-up and loss of mass on a sensor chip optically.)

The target in test [3] is T3, recombinant human ROR1 protein (Fc-Tag, Acro Biosystems RO1-H5250) (human, UniProt Q01973 30-406).
T3 construct: Bought; also called hROR1; recombinant human ROR1 ECD; not shown: Fc tag
Kind of test: SPR; hROR1-Fc immobilized (Avidity).

Test [4] deals with T2, recombinant human CD3 epsilon …. Kind of test: SPR; hCD3ε immobilized, two-state fit (Ka1).
The target is the same in test [5]. The experiment in a line: SPR; hCD3ε immobilized, two-state fit (kd1).
The target in test [6] is T4, human ROR1 (Peprotech 160-054) (human, UniProt Q01973 30-406).
T4 construct: Bought, used as analyte; also called hROR1; recombinant human ROR1 protein
The experiment in a line: SPR; MATCH4 captured, hROR1 analyte (Affinity).

In test [7] the target is T5, human serum albumin (Sigma-Aldrich A3782) (human, UniProt P02768 25-609).
T5 construct: also called hSA; HSA
Kind of test: SPR; hSA immobilized, pH 5.5.

B1: PRO2670 (bispecific antibody)
chain 1: DVQMTQSPSSLSASVGDRVTITCRASENIYSGLAWYQQKPGKPPKLLIYRASTLASGVSSRFSGSGSGTDFTLTISSLQPEDFATYYCQGGYYSSSSTYIAFGCGTKVTVLGGGGGSGGGGSGGGGSGGGGSQSQVVESGGGRVQPGGSLRLSCAVSGFDLSSYAVSWVRQAPGKCLEWIGIIYPRANTYYASWAKGRFTISKDNSKNTVYLQMNSLRAEDTATYFCARDRYDSGAYLYTTYFNLWGQGTQVTVSSGGGGSGGGGSAFELTQSPSSLSASVGDRVTITCQASESINSRLAWYQQKPGQPPKLLIYDASDLTSGVPSRFSGSGSGTDFTLTISSLQPEDFATYYCQGYGGSSTTTFGCGTKLTVLGGGSGGSDIQMTQSPSSLSASVGDRVTITCQSSQSVFSNNYLAWFQQKPGQSPKRLIYSASTLASGVPSRFSGSGSGTDFTLTISSLQPEDFATYYCLGSYACSSADCYVFGTGTKVTVLG
chain 2: DVQMTQSPSSLSASVGDRVTITCRASENIYSGLAWYQQKPGKPPKLLIYRASTLASGVSSRFSGSGSGTDFTLTISSLQPEDFATYYCQGGYYSSSSTYIAFGCGTKVTVLGGGGGSGGGGSGGGGSGGGGSQSQVVESGGGRVQPGGSLRLSCAVSGFDLSSYAVSWVRQAPGKCLEWIGIIYPRANTYYASWAKGRFTISKDNSKNTVYLQMNSLRAEDTATYFCARDRYDSGAYLYTTYFNLWGQGTQVTVSSGGGGSGGGGSEVQLVESGGGRVQPGGSLRLSCAASGFSLSSYDMSWVRQAPGKGLAWIGASYASGPTYYASWAKGRFTISRDNSKNTVYLQMNSLRAEDTATYFCARGGWTGTSHSNIWGQGTQVTVSSGGGSGGGSGGGSGEVQLVESGGGRVQPGGSLRLSCAASGFSLSSYAMNWVRQAPGKCLEWIGHINAGDIAYYATWAKGRFTISRDNSKNTVYLQMNSLRAEDTATYFCARGAGGFSTGPFKLWGQGTQVTVSS
notes: heterodimeric MATCH4, modified VH domains, optimized variant of PRO2590; also called MATCH4 with 55-38-D07-sc06(RTQ) / 19-04-A10-sc02(RTQ) diS / 28-21-D09-sc04(RTQ) / 55-38-D07-sc06(RTQ); RPO2670
In general, EC50 refers to the concentration needed to bring the measured effect to its halfway point. A low value points to greater potency. One may read the koff as the first-order rate constant of dissociation. As usually defined, the kon is a measure of how fast the partners come together. On to B1, for which, in test [1], the EC50 came out at 0.85 nM; the “Rel. maximum binding (MFIMATCH4/MFIPRO2213)” value worked out at 2.68; the “rel. EC50 (EC50, PRO2213/EC50, MATCH4)” value is 0.39. In addition, in test [2], the Ka2 turned out to be 0.0054 s⁻¹, the Kd was 2.7 nM and the Kd2 was 0.0047 s⁻¹. In test [3], the Kd came to 0.11 nM, the off-rate (koff) worked out at 8.1e-05 s⁻¹ and the kon was found to be 760000 M⁻¹ s⁻¹. Further, in test [4], the kon was 820000 M⁻¹ s⁻¹. The koff in test [5] was found to be 0.0048 s⁻¹. Moreover, in test [6], the Kd came out at 2.87 nM, the off-rate constant (koff) turned out to be 0.000132 s⁻¹ and the kon turned out to be 46000 M⁻¹ s⁻¹. Also, in test [7], the Kd was 3.5 nM, the koff came out at 0.0013 s⁻¹ and the on-rate constant (kon) stood at 370000 M⁻¹ s⁻¹.
